Source: the supplement of paper PMC9170038

Tested on: K4 kissing-loop RNA reporter
Assay: apparent KD of K4 kissing-loop reporter; higher = weaker reporter binding
Conditions: Eterna round: R107
Protocol: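 RNA-MaP round R107: designed RNA switches with theophylline, tryptophan, arginine or FMN aptamers are transcribed on-chip within common flanks. They are titrated with a labelled K4 kissing-loop RNA reporter in RNA-MaP buffer (100 mM Tris pH 7.5, 80 mM KCl, 4 mM MgCl2), without ligand or with the indicated ligand. Median apparent KD per design.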

[1] = input ligand: theophylline 20 uM
[2] = input ligand: tryptophan 2.4 mM
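Also: bound reporter read as fluorescence of individual clusters on recovered sequencing chips by microscopy, with normalized cluster intensities fitted with a binding model.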

Sequence	apparent KD of K4 kissing-loop reporter (input ligand: FMN 200 uM)	apparent KD of K4 kissing-loop reporter (input ligand: arginine 13.2 mM)	apparent KD of K4 kissing-loop reporter (input ligand: none)	apparent KD of K4 kissing-loop reporter [1]	apparent KD of K4 kissing-loop reporter [2]
AUUUAGACGAGUGAUGUUCGUGUUAUUACAGAGGAUAUGCGUAAUUGCAGAAGGCUGUAUUUAUAUAUGUUAUGUAGUUUUAAAA [whbob_Ex_FMNA__2th184]	87.3 nM	108 nM	84.8 nM	94.8 nM	74.1 nM
CCUAGUCGGAUACUCAAUCCAAUGCGAGAUACCAGCGGUCUUACGCGCCCUUGGCAGCUCAUAAUGAUGAACCAGUGAUGUUGGG [theeternabot_sameState_KL_Theo_A_40]	423 nM	268 nM	397 nM	446 nM	368 nM
UAGAGGAGACUCUAAUUCCUUAAGUCCGAAGGAGCGACCCAAUGGUCAGGUAGGUCGCGGACAAUCCUAGUGAUGUUAGGAUCUG [Arg A SS t5a]	141 nM	136 nM	160 nM	170 nM	129 nM
UGUGUUUACCUGACUCAGUGAUGUUGAGAAGGAGCGUGCGAAGGCACAGGUAGGUCGCUCAACCUAAAUUCAGGUGAGCACUAAA	249 nM	168 nM	344 nM	281 nM	250 nM
AGUAGGAAACUACAAUCCUCUCUUACUGAAGGAGCGCGUGAAAACGCAGGUAGGUCGCAGGAUUUGAGAGUGAUGUUCUCAUUAA [Ex Arginine A K4 16]	201 nM	294 nM	231 nM	277 nM	174 nM
AAAUAGAUCAGUCAACCAGUGAUGUUGGAAGGAGCGUGCGAAAGCACAGGUAGGUCGCCAGAAUAAAAGUGGCUGAUCAAAAUAA	357 nM	384 nM	374 nM	508 nM	214 nM
GUCCACACUGCAGGAUAUGGAGGAAUAGCGAGGGAGUGUGGAAGCACACCUCUGGCAGUGAUGUUGCCAGAAGGGCGGUGCGGCG [Cemaorar]	111 nM	75.5 nM	76.4 nM	69 nM	93.4 nM
AGAGUCACAUAAGGAUAUCCCUUGACGGGAACCAAGUGAUGUUUGGUUAGACGACCUCUUAUCACGGGAGAAGGUAUAUUUGUAU [theeternabot_sameState_KL_FMN_B_27]	724 nM	580 nM	889 nM	676 nM	612 nM
CGCAAGCAGCCAGUGAUGUUGGCUGCCUUGCGAGGACCGGUACGGCCGCCACUCGAAGGCAGCUACUGGUAAACCGUCUAACGGA [Atere]	117 nM	105 nM	111 nM	90.7 nM	250 nM
UUUUACGAGUGAUGUUCGUAUUGUAAUAGUUAGGAUAUCGUUUUUUCGAGAAGGAACUUCGAAGUGAUACGAAAGUAUCGCUUCG [FMN A 10]	138 nM	142 nM	154 nM	143 nM	130 nM
AGCUGUGGCAGAAGGAGCGACAGUUAUUCUGAUAGUACUCUGAGUGAUGUUCAGAACGACUGUCAGGUAGGUCGCUGUCACAGCU [#01 K4 Arginine B Exclusion]	172 nM	159 nM	175 nM	153 nM	169 nM
AUAGACUUGCAGUGAUGUUGCAAGUGAGACUAGGAUAUCAGGAAGCUGAGAAGGAGUCAUCUCCUUCAGACAUCACUAUGAAGGA [whbob_SS_FMNA__2th180]	270 nM	180 nM	251 nM	204 nM	221 nM
UGGACCAAGGAGUGAUGUUCCAUAUGUGAUACCAGCCACGAAAGUGGCCCUUGGCAGCACUGCCAGGACGAAAACGUCCGGUCCU [#SwitchBubble 13 #StaticStem #K4Early]	390 nM	346 nM	503 nM	477 nM	321 nM
GCGCGUGUUAAAGGAUAUAGCAGGUGAUACAAGAAAGUGAGUGAUGUUUAUGUAGAUGAUGAUAUGUUAGAAGGUUAACAAGCGC [abcdefghijklmnopq]	778 nM	606 nM	847 nM	739 nM	605 nM
CGCGCGCGUUGAGAGGCGCGCGCGAAUGAUACCAGUAUAUAAGAAUACCCUUGGCAGCAUAAGAAAGAUAUAGUGAUGUUGUAUA [SSTheophA.E]	67.3 nM	264 nM	293 nM	466 nM	188 nM
AGACUACUGAUAGGAUAUAACAUACUAGCUCGUAUACCAAAGGUAUACGAGCACCUUCUAGUGAUGUUAGAAGGGUCGGUAGUCA [Omei KL FMN B Exc B v3]	301 nM	104 nM	108 nM	109 nM	117 nM
